Our source for the binding signal values is paper PMC11417369, “DNA sequence and chromatin differentiate sequence-specific transcription factor binding in the human malaria parasite Plasmodium falciparum”.

The data set has as its target T1, AP2-LT D1 (Plasmodium falciparum, UniProt Q8IAM1 2520-2577).
T1 sequence: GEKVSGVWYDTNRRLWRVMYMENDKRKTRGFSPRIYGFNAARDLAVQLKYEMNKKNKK
Put plainly: gcPBM; about 25 ug protein; PBS, 1% milk, 0.2 mg/ml BSA, salmon testes DNA, 0.03% Triton X-100. To be noted: tags: N-terminal GST (pGEX-4T-1), kept; label: surface-attached array probe.

Substitutions are numbered along the chain they refer to.

B1: CACACA_site6447 (dsDNA)
DNA 1: AATACACGCAGACACACACACACACGCACATATATA
DNA 2: TATATATGTGCGTGTGTGTGTGTGTCTGCGTGTATT
Regarding B1, the binding signal was 10.3 ln median PBM intensity, better of two orientations.

B2: CACACA_site7106 (dsDNA)
DNA 1: AAAAAACACGCGCACACACACACACGCGCCCACATA
DNA 2: TATGTGGGCGCGTGTGTGTGTGTGCGCGTGTTTTTT
Regarding B2, the binding signal is 10.5 ln median PBM intensity, better of two orientations.

B3: CACACA_site4674 (dsDNA)
DNA 1: CATATAAAAGGACACACACACACATATATATATATA
DNA 2: TATATATATATATGTGTGTGTGTGTCCTTTTATATG
For the molecule B3, the binding signal was 10.6 ln median PBM intensity, better of two orientations.

B4: CACACA_site4437 (dsDNA)
DNA 1: B3 DNA 1 with A7C, A9C, G11A, C23T
DNA 2: B3 DNA 2 with G14A, C26T, T28G, T30G
As for B4, the binding signal is 10.4 ln median PBM intensity, better of two orientations.

B5: CACACA_site8035 (dsDNA)
DNA 1: TAAGTATACACATACACACACACACTAATAAAAAAA
DNA 2: TTTTTTTATTAGTGTGTGTGTGTATGTGTATACTTA
In the case of B5, the binding signal was 10.2 ln median PBM intensity, better of two orientations.

B6: CACACA_site517 (dsDNA)
DNA 1: AATTAACAAAAACACACACACACACCCACAAAAAAA
DNA 2: TTTTTTTGTGGGTGTGTGTGTGTGTTTTTGTTAATT
As to B6, the binding signal is 10.3 ln median PBM intensity, better of two orientations.

B7: CACACA_site8248 (dsDNA)
DNA 1: TGAACTCACGAGCACACACACACATATATATATATA
DNA 2: TATATATATATATGTGTGTGTGTGCTCGTGAGTTCA
Take B7: the binding signal was 10.5 ln median PBM intensity, better of two orientations.

B8: CACACA_site5977 (dsDNA)
DNA 1: AATGACAACCTTGTCACACATATATATATATATATA
DNA 2: TATATATATATATATATGTGTGACAAGGTTGTCATT
With B8, the binding signal was 10.2 ln median PBM intensity, better of two orientations.

B9: CACACA_site1992 (dsDNA)
DNA 1: TGGGTAAACAAACACACACACATATATATATATATA
DNA 2: TATATATATATATATGTGTGTGTGTTTGTTTACCCA
As to B9, the binding signal was 10.5 ln median PBM intensity, better of two orientations.

B10: CACACA_site268 (dsDNA)
DNA 1: AATATAAACCCAAACACACACATATATATATATATA
DNA 2: TATATATATATATATGTGTGTGTTTGGGTTTATATT
As to B10, the binding signal was 10.3 ln median PBM intensity, better of two orientations.

B11: CACACA_site453 (dsDNA)
DNA 1: CAAAGACACAAACACACACACACATACATACATACA
DNA 2: TGTATGTATGTATGTGTGTGTGTGTTTGTGTCTTTG
For B11, the binding signal is 10.6 ln median PBM intensity, better of two orientations.

B12: CACACA_site2666 (dsDNA)
DNA 1: B11 DNA 1 with C1A, G5A, A11G, C23T
DNA 2: B11 DNA 2 with G14A, T26C, C32T, G36T
Consider B12, for which the binding signal was 10.6 ln median PBM intensity, better of two orientations.

B13: CACACA_site6448 (dsDNA)
DNA 1: AAAATACACGCATACACACACACACGCGCACATATA
DNA 2: TATATGTGCGCGTGTGTGTGTGTATGCGTGTATTTT
With B13, the binding signal is 10.2 ln median PBM intensity, better of two orientations.

B14: CACACA_site4314 (dsDNA)
DNA 1: AATAAATAAAGAAGTACACACATATATATATATATA
DNA 2: TATATATATATATATGTGTGTACTTCTTTATTTATT
Take B14: the binding signal is 10.3 ln median PBM intensity, better of two orientations.

B15: CACACA_site4429 (dsDNA)
DNA 1: TAAACATACAGATACACACACACACCCACAGAGACA
DNA 2: TGTCTCTGTGGGTGTGTGTGTGTATCTGTATGTTTA
For the molecule B15, the binding signal was 10.1 ln median PBM intensity, better of two orientations.

B16: CACACA_site8452 (dsDNA)
DNA 1: AAAAAAAAAAAACATACACACACATATATATATATA
DNA 2: TATATATATATATGTGTGTGTATGTTTTTTTTTTTT
Consider B16, for which the binding signal was 10.3 ln median PBM intensity, better of two orientations.

B17: CACACA_site9270 (dsDNA)
DNA 1: AAAAAAAAAAAATATACACACACACCGACACATAAA
DNA 2: TTTATGTGTCGGTGTGTGTGTATATTTTTTTTTTTT
Consider B17, for which the binding signal was 10.2 ln median PBM intensity, better of two orientations.

B18: CACACA_site706 (dsDNA)
DNA 1: AAAAAAAAAAAACACACACACACAAATACATACACA
DNA 2: TGTGTATGTATTTGTGTGTGTGTGTTTTTTTTTTTT
Consider B18, for which the binding signal is 10.4 ln median PBM intensity, better of two orientations.

B19: CACACA_site2539 (dsDNA)
DNA 1: TATATATAGAAACACACACACACATATATATATATT
DNA 2: AATATATATATATGTGTGTGTGTGTTTCTATATATA
Take B19: the binding signal was 10.1 ln median PBM intensity, better of two orientations.

B20: CACACA_site2267 (dsDNA)
DNA 1: AATATAAATAAAAACACACACACACCCATATATATA
DNA 2: TATATATATGGGTGTGTGTGTGTTTTTATTTATATT
Regarding B20, the binding signal is 10.6 ln median PBM intensity, better of two orientations.

B21: CACACA_site3390 (dsDNA)
DNA 1: ACAAAATAAAAACACACACACAAACACAAAAAAATA
DNA 2: TATTTTTTTGTGTTTGTGTGTGTGTTTTTATTTTGT
For the molecule B21, the binding signal is 10.1 ln median PBM intensity, better of two orientations.

B22: CACACA_site5873 (dsDNA)
DNA 1: AATAACCACGGACACACACACATATATATATATATA
DNA 2: TATATATATATATATGTGTGTGTGTCCGTGGTTATT
B22: the binding signal was 10.5 ln median PBM intensity, better of two orientations.

B23: CACACA_site5809 (dsDNA)
DNA 1: B22 DNA 1 with T3C, A5C, C9T
DNA 2: B22 DNA 2 with G28A, T32G, A34G
For the molecule B23, the binding signal is 10.5 ln median PBM intensity, better of two orientations.

B24: CACACA_site5250 (dsDNA)
DNA 1: CGCGCCCAGAAACACACACACACACCGATATATATA
DNA 2: TATATATATCGGTGTGTGTGTGTGTTTCTGGGCGCG
For the molecule B24, the binding signal is 10.2 ln median PBM intensity, better of two orientations.

B25: CACACA_site8234 (dsDNA)
DNA 1: CTATTTCATAAACACACACACACAAACAAACATATA
DNA 2: TATATGTTTGTTTGTGTGTGTGTGTTTATGAAATAG
In the case of B25, the binding signal was 10.2 ln median PBM intensity, better of two orientations.

B26: CACACA_site8266 (dsDNA)
DNA 1: TATGCATATACACAAGCACACATATATATATATATA
DNA 2: TATATATATATATATGTGTGCTTGTGTATATGCATA
With B26, the binding signal was 10.1 ln median PBM intensity, better of two orientations.

B27: CACACA_site8097 (dsDNA)
DNA 1: CATACACCCCAACACACACACACACCCATATATAAT
DNA 2: ATTATATATGGGTGTGTGTGTGTGTTGGGGTGTATG
Consider B27, for which the binding signal was 10.6 ln median PBM intensity, better of two orientations.

B28: CACACA_site905 (dsDNA)
DNA 1: AAAAAGGAGAAACACACACACACACCCATATATATA
DNA 2: TATATATATGGGTGTGTGTGTGTGTTTCTCCTTTTT
Turning to B28, the binding signal is 10.2 ln median PBM intensity, better of two orientations.

B29: CACACA_site1020 (dsDNA)
DNA 1: AACAGACGAAGACACACACACATATATATATATATA
DNA 2: TATATATATATATATGTGTGTGTGTCTTCGTCTGTT
Consider B29, for which the binding signal is 10.4 ln median PBM intensity, better of two orientations.

B30: CACACA_site5033 (dsDNA)
DNA 1: TCATAGTATGGACACACACACACACCCATATATATA
DNA 2: TATATATATGGGTGTGTGTGTGTGTCCATACTATGA
As for B30, the binding signal was 10.2 ln median PBM intensity, better of two orientations.

B31: CACACA_site2920 (dsDNA)
DNA 1: CATACATACAGACACACACACATATATATATATATA
DNA 2: TATATATATATATATGTGTGTGTGTCTGTATGTATG
On to B31, for which the binding signal was 10.4 ln median PBM intensity, better of two orientations.

B32: CACACA_site2248 (dsDNA)
DNA 1: B31 DNA 1 with C1T, C9G, G11A
DNA 2: B19 DNA 2 with A1T, G14A, A32G
Take B32: the binding signal was 10.2 ln median PBM intensity, better of two orientations.

B33: CACACA_site4351 (dsDNA)
DNA 1: B31 DNA 1 with A2C, T3C, T7G, A10G
DNA 2: B31 DNA 2 with T27C, A30C, A34G, T35G
For B33, the binding signal is 10.2 ln median PBM intensity, better of two orientations.

B34: CACACA_site363 (dsDNA)
DNA 1: B31 DNA 1 with T3C, A6C, T7C, T23C
DNA 2: B31 DNA 2 with A14G, A30G, T31G, A34G
For B34, the binding signal was 10.3 ln median PBM intensity, better of two orientations.

B35: CACACA_site773 (dsDNA)
DNA 1: B19 DNA 1 with C23T, T36A
DNA 2: B19 DNA 2 with A1T, G14A
On to B35, for which the binding signal was 10.3 ln median PBM intensity, better of two orientations.

B36: CACACA_site4354 (dsDNA)
DNA 1: CACAGACACGGACACACACACACACCCATATATATA
DNA 2: TATATATATGGGTGTGTGTGTGTGTCCGTGTCTGTG
On to B36, for which the binding signal is 10.3 ln median PBM intensity, better of two orientations.

B37: CACACA_site481 (dsDNA)
DNA 1: ATAATCCTGAAACACACACACACACCCATAAATAAA
DNA 2: TTTATTTATGGGTGTGTGTGTGTGTTTCAGGATTAT
With B37, the binding signal was 10.4 ln median PBM intensity, better of two orientations.

B38: CACACA_site7828 (dsDNA)
DNA 1: TATATAAATAGACACACACACACCTTATAATTACTA
DNA 2: TAGTAATTATAAGGTGTGTGTGTGTCTATTTATATA
Turning to B38, the binding signal is 10.2 ln median PBM intensity, better of two orientations.

B39: CACACA_site7866 (dsDNA)
DNA 1: GGATATAACAGACACACACACACATATAAATATATT
DNA 2: AATATATTTATATGTGTGTGTGTGTCTGTTATATCC
For the molecule B39, the binding signal was 10.4 ln median PBM intensity, better of two orientations.

B40: CACACA_site6255 (dsDNA)
DNA 1: TTTATTAATAGACACACACACACACGCAAAATAAAA
DNA 2: TTTTATTTTGCGTGTGTGTGTGTGTCTATTAATAAA
As for B40, the binding signal was 10.4 ln median PBM intensity, better of two orientations.

B41: CACACA_site9255 (dsDNA)
DNA 1: AAAGAAGGTAAACACACACACACACCGACAAAAAAA
DNA 2: TTTTTTTGTCGGTGTGTGTGTGTGTTTACCTTCTTT
As to B41, the binding signal is 10.6 ln median PBM intensity, better of two orientations.
